Test results reported in the supplement of paper PMC10126150.
± gives the standard deviation of the averaged measurements.

Test system: ATP
Test: switch fluorescence ratio, 500 uM ATP over buffer (Cy3 cluster intensity, sum of 5 cycles each) (fold (ratio)); higher = stronger signal-on switching upon ATP binding; sequences stand for … in TCGTCGGCAGCGTCAGATGTGTATAAGAGACAGTTTTTTTTTTTTTTTTTTTTTTTTT…TC
Conditions: aptamer strand: ATP DNA aptamer (quencher-CACCTGGGGGAGTATTGCGGAGGAAGG + anchor), 100 nM annealed; ATP concentration: 500 uM
How it was run: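 Exposure to 500 uM ATP lasted 15 min at 22 °C before imaging, and a selection-buffer image was taken beforehand, for Cy3-labelled switching-strand clusters on a modified Illumina MiSeq flow-cell annealed to 100 nM quencher-labelled ATP aptamer. Five buffer/ATP cycles were run with NaOH stripping and re-annealing between them. The fluorescence ratio per cluster is summed target-cycle over summed buffer-cycle Cy3 intensity, averaged per switch-domain sequence. Clusters outside 100-1000 RFU were excluded.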

| Sequence | switch fluorescence ratio |
| --- | --- |
| ATGTGTAGGG | 0.9711 ± 0.0014 |
| ATGTGTATTG | 0.985 ± 0.025 |
| ATGTGTGGAG | 1.013 ± 0.0048 |
| ATGTGTGTGG | 1.03 ± 0.017 |
| ATGTGTTACC | 1.01 ± 0.021 |
| ATGTTAAATC | 0.96 ± 0.029 |
| ATGTTAACTA | 0.985 ± 0.065 |
| ATGTTAGTGG | 1.01 ± 0.066 |
| ATGTTATTGG | 0.967 ± 0.033 |
| ATGTTGATAT | 1.01 ± 0.045 |
| ATGTTGGGAA | 0.978 ± 0.029 |
| ATGTTGGGGG | 0.989 ± 0.018 |
| ATGTTGGGGT | 1 ± 0.029 |
| ATGTTGTGGT | 0.987 ± 0.031 |
| ATGTTTATCT | 0.979 ± 0.044 |
| ATGTTTGCTT | 0.974 ± 0.025 |
| ATGTTTGTTT | 0.993 ± 0.05 |
| ATGTTTTAGG | 1.01 ± 0.047 |
| ATGTTTTCCT | 1.0718 ± 0.00067 |
| ATGTTTTTAG | 0.991 ± 0.018 |
| ATTAAAAATC | 0.968 ± 0.036 |
| ATTAAACGGG | 0.997 ± 0.012 |
| ATTAAATAAC | 1.02 ± 0.02 |
| ATTAAATCAG | 1.013 ± 0.0058 |
| ATTAAATGAT | 0.9574 ± 0.002 |

| Sequence | switch fluorescence ratio |
| --- | --- |
| ATTAACCAGG | 1.27 ± 0.065 |
| ATTAACTTTG | 1.01 ± 0.05 |
| ATTAAGAGTA | 0.961 ± 0.012 |
| ATTAAGGATT | 1.01 ± 0.016 |
| ATTAAGGCCC | 0.988 ± 0.044 |
| ATTAAGGCGC | 0.998 ± 0.029 |
| ATTAAGGGCA | 0.97 ± 0.011 |
| ATTAAGGTAA | 1.01 ± 0.033 |
| ATTAAGTTGG | 0.982 ± 0.022 |
| ATTAAGTTTC | 0.9675 ± 0.0012 |
| ATTAAGTTTT | 1 ± 0.028 |
| ATTAATAGTT | 0.997 ± 0.053 |
| ATTAATTTTG | 0.992 ± 0.023 |
| ATTACGGAGA | 1.05 ± 0.069 |
| ATTACGGGAT | 1.01 ± 0.062 |
| ATTACGTAGC | 1.428 ± 0.0063 |
| ATTACTGAGT | 1.03 ± 0.015 |
| ATTACTGTGC | 0.94 ± 0.02 |
| ATTACTTAAG | 1 ± 0.046 |
| ATTAGAAGGG | 0.985 ± 0.061 |
| ATTAGAATGG | 1 ± 0.01 |
| ATTAGACGGA | 1.058 ± 0.0045 |
| ATTAGATATA | 1 ± 0.035 |
| ATTAGATTTT | 1.02 ± 0.12 |
| ATTAGGAGAT | 0.9964 ± 0.0063 |

| Sequence | switch fluorescence ratio |
| --- | --- |
| ATTAGGATTG | 1 ± 0.053 |
| ATTAGGGGAG | 0.972 ± 0.0028 |
| ATTAGGGTAT | 1.0078 ± 0.00026 |
| ATTAGGTATG | 0.969 ± 0.016 |
| ATTAGGTTGA | 0.975 ± 0.0047 |
| ATTAGTACTG | 1.02 ± 0.02 |
| ATTAGTCAGG | 1.03 ± 0.019 |
| ATTAGTCGGT | 0.97109 ± 0.00068 |
| ATTAGTTTTG | 0.99 ± 0.029 |
| ATTATACGGC | 1.056 ± 0.0042 |
| ATTATAGGGG | 0.986 ± 0.0017 |
| ATTATAGTAA | 0.9886 ± 0.0022 |
| ATTATATGTG | 1.02 ± 0.027 |
| ATTATCAGTT | 0.987 ± 0.021 |
| ATTATCGCGC | 0.983 ± 0.031 |
| ATTATCTACT | 1.04 ± 0.026 |
| ATTATGACGG | 0.982 ± 0.047 |
| ATTATGAGTA | 0.9727 ± 0.0091 |
| ATTATGATAT | 1.01 ± 0.015 |
| ATTATGGAAG | 0.994 ± 0.018 |
| ATTATGGCAC | 1.01 ± 0.0041 |
| ATTATGGCGT | 0.999 ± 0.013 |
| ATTATGGGAG | 0.989 ± 0.011 |
| ATTATGGGTA | 1.02 ± 0.036 |
| ATTATGGTCG | 0.999 ± 0.084 |

| Sequence | switch fluorescence ratio |
| --- | --- |
| ATTATGTACT | 1.05 ± 0.022 |
| ATTATGTCTG | 0.966 ± 0.071 |
| ATTATTAATT | 0.973 ± 0.022 |
| ATTATTACGT | 0.99 ± 0.038 |
| ATTATTGACT | 1.04 ± 0.014 |
| ATTATTGGCG | 1.01 ± 0.042 |
| ATTATTGGGA | 1 ± 0.046 |
| ATTATTGGGG | 0.9642 ± 0.0086 |
| ATTCAAAAAA | 0.999 ± 0.039 |
| ATTCAAATGT | 1 ± 0.03 |
| ATTCAGGCTT | 1.029 ± 0.0019 |
| ATTCAGGTTC | 0.996 ± 0.032 |
| ATTCAGGTTG | 1.02 ± 0.016 |
| ATTCATATGT | 0.999 ± 0.018 |
| ATTCATGTGT | 1.02 ± 0.026 |
| ATTCATTATT | 0.9927 ± 0.0049 |
| ATTCATTGC | 1.038 ± 0.0048 |
| ATTCATTGGG | 0.9872 ± 0.0075 |
| ATTCCAATTT | 1.08 ± 0.035 |
| ATTCCCAATT | 1.04 ± 0.025 |
| ATTCGCCACT | 1.011 ± 0.0012 |
| ATTCGCGAGG | 0.982 ± 0.027 |
| ATTCGGGGCT | 1 ± 0.038 |
| ATTCGGGGGG | 0.99 ± 0.022 |
| ATTCGGTCTG | 0.9825 ± 0.006 |

| Sequence | switch fluorescence ratio |
| --- | --- |
| ATTCGGTTGT | 1.001 ± 0.0059 |
| ATTCGTGCGC | 1.071 ± 0.0046 |
| ATTCGTTATG | 1 ± 0.013 |
| ATTCGTTGG | 1 ± 0.038 |
| ATTCTACGGC | 1.06 ± 0.073 |
| ATTCTAGTAT | 0.962 ± 0.026 |
| ATTCTAGTCG | 1.02 ± 0.086 |
| ATTCTCCTTG | 1 ± 0.017 |
| ATTCTCTGGT | 1.01 ± 0.076 |
| ATTCTGCTCC | 0.991 ± 0.041 |
| ATTCTTTGGT | 0.979 ± 0.054 |
| ATTCTTTGTT | 0.962 ± 0.045 |
| ATTCTTTTGG | 0.9726 ± 0.0041 |
| ATTGAAGATT | 0.989 ± 0.037 |
| ATTGACGAGG | 1.001 ± 0.0026 |
| ATTGACGGGT | 0.9762 ± 0.0085 |
| ATTGAGAGGG | 1.07 ± 0.075 |
| ATTGAGCGGG | 1 ± 0.034 |
| ATTGAGGAAT | 0.965 ± 0.064 |
| ATTGAGGGGA | 0.994 ± 0.032 |
| ATTGAGGGTC | 0.986 ± 0.018 |
| ATTGAGTTAG | 0.99 ± 0.011 |
| ATTGAGTTAT | 0.967 ± 0.019 |
| ATTGATAGCA | 1.03 ± 0.028 |
| ATTGATCTCC | 1.03 ± 0.072 |

| Sequence | switch fluorescence ratio |
| --- | --- |
| ATTGATGATA | 1.018 ± 0.0092 |
| ATTGATGGCC | 0.963 ± 0.032 |
| ATTGATTCGG | 0.999 ± 0.014 |
| ATTGCAGCGG | 1 ± 0.02 |
| ATTGCATTCA | 0.9949 ± 0.0041 |
| ATTGCCCGTT | 1.09 ± 0.21 |
| ATTGCCGAGT | 1.03 ± 0.022 |
| ATTGCGCAAG | 1.01 ± 0.02 |
| ATTGCTATGG | 1.01 ± 0.016 |
| ATTGCTATTC | 1.03 ± 0.014 |
| ATTGCTGGGG | 1.01 ± 0.056 |
| ATTGGAAAAG | 0.985 ± 0.035 |
| ATTGGACTAG | 0.989 ± 0.07 |
| ATTGGACTG | 1.01 ± 0.035 |
| ATTGGAGGGT | 0.979 ± 0.025 |
| ATTGGAGTGG | 0.994 ± 0.032 |
| ATTGGATGTG | 0.981 ± 0.019 |
| ATTGGCGTGC | 0.987 ± 0.03 |
| ATTGGCGTGG | 1.01 ± 0.019 |
| ATTGGGAGAT | 1.024 ± 0.0064 |
| ATTGGGAGGT | 0.972 ± 0.033 |
| ATTGGGCAGT | 0.973 ± 0.053 |
| ATTGGGGAGA | 1.04 ± 0.052 |
| ATTGGGGAGC | 0.989 ± 0.014 |
| ATTGGGGATT | 1.013 ± 0.009 |

| Sequence | switch fluorescence ratio |
| --- | --- |
| ATTGGGGCGC | 0.991 ± 0.041 |
| ATTGGGTCGG | 0.996 ± 0.02 |
| ATTGGTAGAG | 0.9717 ± 0.0024 |
| ATTGGTAGTG | 0.997 ± 0.034 |
| ATTGGTCAGC | 0.982 ± 0.035 |
| ATTGGTGTAG | 0.972 ± 0.023 |
| ATTGTAGGC | 1.01 ± 0.029 |
| ATTGTAGTTT | 1 ± 0.066 |
| ATTGTATAAG | 0.9828 ± 0.0052 |
| ATTGTATCAG | 0.983 ± 0.027 |
| ATTGTATGGA | 1 ± 0.011 |
| ATTGTATGGT | 0.956 ± 0.012 |
| ATTGTCAGTT | 1.013 ± 0.0029 |
| ATTGTCGTGA | 0.991 ± 0.037 |
| ATTGTCTAGC | 0.999 ± 0.019 |
| ATTGTCTTCG | 0.987 ± 0.041 |
| ATTGTGAACG | 1 ± 0.042 |
| ATTGTGATGA | 1.024 ± 0.0085 |
| ATTGTGCCGA | 0.972 ± 0.011 |
| ATTGTGCGAC | 1 ± 0.021 |
| ATTGTGCTTT | 1.04 ± 0.024 |
| ATTGTGGAGC | 1.04 ± 0.061 |
| ATTGTGGGGT | 0.977 ± 0.04 |
| ATTGTGGTCC | 1.007 ± 0.0082 |
| ATTGTGTTTT | 0.99 ± 0.062 |

| Sequence | switch fluorescence ratio |
| --- | --- |
| ATTGTTGATC | 1.01 ± 0.029 |
| ATTGTTTAAG | 1.01 ± 0.024 |
| ATTGTTTAGC | 1.01 ± 0.075 |
| ATTGTTTCCT | 1.06 ± 0.039 |
| ATTTACGAGT | 0.981 ± 0.045 |
| ATTTACGGGT | 1.015 ± 0.0082 |
| ATTTAGGACT | 0.978 ± 0.027 |
| ATTTAGGGTA | 0.9856 ± 0.0078 |
| ATTTAGTTTA | 0.996 ± 0.017 |
| ATTTATGCGG | 0.985 ± 0.029 |
| ATTTATGGTA | 0.971 ± 0.014 |
| ATTTATGTAA | 0.987 ± 0.012 |
| ATTTATGTTT | 0.979 ± 0.03 |
| ATTTATTCCT | 1.05 ± 0.015 |
| ATTTATTCTA | 0.976 ± 0.036 |
| ATTTATTCTT | 1.011 ± 0.0052 |
| ATTTATTTGT | 0.986 ± 0.03 |
| ATTTCAGTGT | 1.009 ± 0.0044 |
| ATTTCATGCG | 1.03 ± 0.023 |
| ATTTCATGTG | 0.9853 ± 0.0035 |
| ATTTCCACAA | 1.1 ± 0.03 |
| ATTTCCTGTG | 1.042 ± 0.0014 |
| ATTTCGGGGT | 1.01 ± 0.042 |
| ATTTCGGTCT | 0.9892 ± 0.0049 |
| ATTTCTTTCA | 1.02 ± 0.033 |
